Test [1] addresses SH1 membrane-associated protein VP12 (haloarchaeal virus SH1). The test can be described thus: cryo-EM structure; purified SH1 virions with and without spikes, data merged; icosahedral and block-based/localised reconstruction of the capsid, 3.8 Å; 20 mM Tris-HCl pH 7.2, 1 M NaCl, 10 mM MnCl2.
For test [2], the target named is SH1 penton protein VP9 (haloarchaeal virus SH1). The test can be described thus: cryo-EM structure; asymmetric (C1) localised reconstruction of the whole 5-fold vertex of spike-containing virions, overall 7.2 Å.

Broadly, the stoichiometry N is the number of molecules, sites or subunits per partner or assembly. Consider “SH1 membrane-associated protein VP12 (natural protein)”, for which, in test [1], the stoichiometry N was 5.
In test [2], “SH1 penton protein VP9 (natural protein)” displayed a stoichiometry N of 5.

The record behind these values is publication PMC6441041.
